The results in this text go back to patent US20240343803A1 (SHANDONG SIMCERE BIOPHARMACEUTICAL, published 2024).

As usually defined, the EC50 is the concentration at which the effect is half-maximal. A word on the IC50: it is the concentration that inhibits the measured activity by half.

The target in assay [1] is T1, full-length cynomolgus monkey TIGIT on CHO-K1 cells (CHO-K1 cynomolgus monkey TIGIT) (cynomolgus monkey).
T1 construct: NCBI XP_015300911.1; also called cynomolgus monkey TIGIT cells
Briefly: FACS. As for the experimental part: (§1) The collected cells were washed once with PBS (Hyclone, CAT #SH30256), resuspended to 2×10⁵/50 μL with 1% BSA-PBS. The antibodies were diluted to 80 nM with 1% BSA-PBS (diluted by 3-fold serial dilution for 12 concentration points). The 50 μL cells were then mixed with 50 μL diluted antibodies, and then incubated at 4° C. for 60 minutes. […] After washing twice with PBS, the cell samples were resuspended with 1% BSA-PBS, 100 μL/well and then analyzed by flow cytometry (BD, Canto II). […] [0298] (c) The effect of anti-TIGIT chimeric antibodies blocking the interaction between Bio-CD155-His and CHO-K1 human TIGIT high expression cell strains detected by FACS
For orientation: A flow cytometer gives signals particle by particle.

Assay [2] concerns the target T2, full-length human TIGIT on CHO-K1 cells (CHO-K1 human TIGIT) (human, UniProt Q495A1 22-244).
T2 construct: NCBI XP_024309156.1; entry includes the signal peptide; also called high expression strain 1D2; medium expression strain 2D10
T2 sequence: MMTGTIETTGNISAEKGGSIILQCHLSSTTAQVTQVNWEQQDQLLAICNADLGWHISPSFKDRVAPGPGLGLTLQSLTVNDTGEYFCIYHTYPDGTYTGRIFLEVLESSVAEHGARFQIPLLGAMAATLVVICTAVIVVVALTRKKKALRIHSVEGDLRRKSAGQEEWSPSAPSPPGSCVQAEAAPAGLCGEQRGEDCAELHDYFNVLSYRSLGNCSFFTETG
Briefly: competition FACS; blocked: Bio-CD155-His binding to CHO-K1 human TIGIT cells. The procedure: (§2) The collected cells were washed once with PBS (Hyclone, SH30256), resuspended to 2×10⁵/40 μL with 1% BSA-PBS. The antibodies were diluted to 210 nM with 1% BSA-PBS (diluted by 3-fold serial dilution for 12 concentration points). […] The 40 μL cells were then mixed with 40 μL diluted antibodies and 40 μL diluted Bio-CD155-His, and then incubated at 4° C. for 60 minutes. The cells were washed twice with PBS, resuspended with APC labeled streptavidin (dilution ratio 1:1700, Biolegend, 405243), 100 μL/well, and incubated at 4° C. for 40 minutes. The cell samples were washed twice with PBS, resuspended with 1% BSA-PBS (100 μL/well) and then analyzed by flow cytometry (BD, Canto II).

Assay [3] deals with T2, full-length human TIGIT on CHO-K1 cells …. The assay is described as follows: FACS, high expression strain. As for the experimental part: as §1
The target is the same in assay [4]. Briefly: FACS, competition: Bio-CD155-His to CHO-K1 human TIGIT. As for the experimental part:
as §2, with “CAT #SH30256),” for “SH30256),”, “BSA-PBS, 100 μL/well” for “BSA-PBS (100 μL/well)”, “II). […] [0300] (d) The effect of anti-TIGIT chimeric antibodies blocking the interaction between TIGIT ECD-mFc and CHO-K1 CD155 detected by FACS” for “II).”

Assay [5] deals with T3, human PVRIG-his (AcroBiosystems, Cat NO. PVG-H52H4) (human, UniProt Q6DKI7 41-171, limits assumed).
T3 construct: treated as the same protein; also called human PVRIG-His protein; Human PVRIG-His, Acro C227P1-9ARF1-T4
T3 sequence (looked up): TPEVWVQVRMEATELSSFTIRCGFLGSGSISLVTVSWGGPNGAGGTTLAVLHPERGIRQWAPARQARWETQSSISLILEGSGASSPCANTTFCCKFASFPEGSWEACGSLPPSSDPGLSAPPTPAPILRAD
The assay is described as follows: competition ELISA on coated human PVRIG-his; blocked ligand human PVRL2-mFc. The procedure:
The ELISA plate was pre-coated with 100 μL/well of 0.5 μg/mL human PVRIG-his protein (AcroBiosystems, Cat NO. PVG-H52H4). The tested anti-PVRIG antibodies were diluted from the highest concentration of 16 nM (two-fold concentration). The diluted antibodies were mixed with 18 ng/ml human PVRL2-mFc (AcroBiosystems, Cat NO. CD2-H5257) in equal volume, added into the plate (100 μL/well), and incubated with shaking at room temperature for 2.0 hours. […] A HRP substrate, TMB (Thermo, Cat NO. 34029) was added into wells after washing the plate again for color development. After adding a termination solution to terminate the reaction, the absorbance value was read by a microplate reader (MD i3×). An inhibiting curve was drawn with concentration of antibodies as the abscissa and the corresponding OD value as the ordinate. The IC50 value was calculated by using a Four Parameter Logistic Fit (GraphPadPrism9). The smaller the IC50 value, the stronger the ability of the antibodies inhibits the binding between PVRIG and PVRL2. The positive and negative controls are the same as in Example 8.
The methods refer to Example 11. The inhibiting activity of the humanized antibodies was normalized to the corresponding parental antibodies. If the percentage value is higher than 100%, the inhibiting effect of humanized antibodies is better than that of parental antibodies.
A general note: ELISA stands for enzyme-linked immunosorbent assay.

T1 sequence (chain, as listed by the source limits assumed): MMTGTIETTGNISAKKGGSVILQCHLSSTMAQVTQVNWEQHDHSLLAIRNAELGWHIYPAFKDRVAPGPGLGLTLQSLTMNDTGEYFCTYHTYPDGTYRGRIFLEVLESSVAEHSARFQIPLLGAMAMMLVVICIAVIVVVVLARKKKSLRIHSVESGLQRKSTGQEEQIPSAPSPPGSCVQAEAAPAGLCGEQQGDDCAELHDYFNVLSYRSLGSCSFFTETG

B1: RG6058-hIgG1 (antibody, V domains shown)
VH: EVQLQQSGPGLVKPSQTLSLTCAISGDSVSSNSAAWNWIRQSPSRGLEWLGKTYYRFKWYSDYAVSVKGRITINPDTSKNQFSLQLNSVTPEDTAVFYCTRESTTYDLLAGPFDYWGQGTLVTVSS
VL: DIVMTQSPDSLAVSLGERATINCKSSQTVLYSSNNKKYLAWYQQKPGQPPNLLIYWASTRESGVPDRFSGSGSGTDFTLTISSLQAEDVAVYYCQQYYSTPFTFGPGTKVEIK
notes: human IgG1 format by its name; also called Roche RG6058; control antibody RG6058
As for B1, the figures for the EC50 in assay [1] and in assay [3] were 0.0509 nM and 0.673 nM, respectively. Besides, the “IC50 (read off the curve)” value in assay [2] is ~0.3 nM. For the same molecule, the 50% inhibitory concentration (IC50) in assay [4] was determined as 0.388 nM.

B2: PVRIG-A105 (VHH)
VHH: EVQLVESGGGLVQAGGSLRLSCAASGRTFDRHTMTWFRQAPGKEREFVATASRIPGDTYYSHSVKGRFTISRDNAKNTVYLQLNNLKPEDTAVYYCAATSAYCSEVDCYEKGSWYDNWGQGIQVTVSS
notes: tested as VHH-hinge-CH2-CH3 (human IgG1-Fc); not shown: human IgG1 hinge-CH2-CH3
Regarding B2, in assay [5], the “IC50 (read off the curve)” value is ~0.7 nM.
